Measurements published in publication PMC9239103, “System-Wide Analysis of the GATC-Binding Nucleoid-Associated Protein Gbn and Its Impact on Streptomyces Development”.

What was measured:
Gbn (SCO1839) [1] = target: T1, Gbn (SCO1839) (Streptomyces coelicolor A3(2) M145, UniProt Q9RJ29 1-73); assay: EMSA; half-binding concentration reduced by more than one-third versus N2; 5 nM DNA; EMSA: 10 mM Tris-HCl pH 7.9, 0.1 mM EDTA, 50 mM KCl, 30 C 15 min, 5% PAGE, ethidium bromide; TPM: 10 mM Tris-HCl pH 8.0, 0.1 mM EDTA, 50 mM KCl, 0.5% acetylated BSA; settings: protein: recombinant; tags: His6 (pET28a, pGWS1286; printed as both His6-Gbn and Gbn-His6); blunt
T1 sequence: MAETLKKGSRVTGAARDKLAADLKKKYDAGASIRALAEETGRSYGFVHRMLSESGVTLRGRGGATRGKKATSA

Gbn (SCO1839) [2] = target: T1, Gbn (SCO1839); assay: EMSA; three binding events seen for four motifs; 7.5 nM DNA; EMSA: 10 mM Tris-HCl pH 7.9, 0.1 mM EDTA, 50 mM KCl, 30 C 15 min, 5% PAGE, ethidium bromide; TPM: 10 mM Tris-HCl pH 8.0, 0.1 mM EDTA, 50 mM KCl, 0.5% acetylated BSA; settings: protein: recombinant; tags: His6 (pET28a, pGWS1286; printed as both His6-Gbn and Gbn-His6); blunt

Binder | binding result (Gbn (SCO1839) [1]) | binding result (Gbn (SCO1839) [2])
p1839_50Single_strong (++, GATCWT) (dsDNA) DNA 1: CTCGACGCCGTCCGGAAGCAGAATGATCCGTTCCGGCTGGAGCGCCTCGA DNA 2: TCGAGGCGCTCCAGCCGGAACGGATCATTCTGCTTCCGGACGGCGTCGAG | binds | –
p1839_50Quadruple (dsDNA) DNA 1: GATGGCGGATCACGGATCGGCCGAATGATCCATAACCAGTGGATCATCCA DNA 2: TGGATGATCCACTGGTTATGGATCATTCGGCCGATCCGTGATCCGCCATC | – | binds
